Source: patent publication US20120283173A1 (UNIVERSITATSKLINIKUM HAMBURG EPPENDORF, published 2012)

T1: Pseudomonas aeruginosa lectin PA-IL (Pseudomonas aeruginosa, UniProt Q05097 2-122)
T1 sequence (looked up): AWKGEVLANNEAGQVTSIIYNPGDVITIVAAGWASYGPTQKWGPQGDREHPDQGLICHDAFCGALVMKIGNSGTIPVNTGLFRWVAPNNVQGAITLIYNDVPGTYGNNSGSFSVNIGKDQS


Key:
[1] = target: T1, Pseudomonas aeruginosa lectin PA-IL; assay: cell-based or functional assay
[2] = target: Pseudomonas aeruginosa lectin PA-IIL (Pseudomonas aeruginosa); assay: cell-based or functional assay

Row | Binder | IC50 of inhibition of the PA-IL-induced decrease of ciliary beat frequency (CBF) [1] | IC50 of inhibition of the PA-IIL-induced decrease of ciliary beat frequency (CBF) [2]
1 | TVFHFRLL [peptide sHNK-1 (scrambled version of pHNK-1)] | 968 µM | –
2 | FLHTRLFV [HNK-1 mimetic peptide pHNK-1] | 484 µM | 968 µM
